Measured values reported in IntAct's records for PubMed 22363216.

Each substance was assayed against arfg1_rat Arfgap1 (UniProt Q62848).
Sequence of arfg1_rat Arfgap1 (Q62848 whole entry): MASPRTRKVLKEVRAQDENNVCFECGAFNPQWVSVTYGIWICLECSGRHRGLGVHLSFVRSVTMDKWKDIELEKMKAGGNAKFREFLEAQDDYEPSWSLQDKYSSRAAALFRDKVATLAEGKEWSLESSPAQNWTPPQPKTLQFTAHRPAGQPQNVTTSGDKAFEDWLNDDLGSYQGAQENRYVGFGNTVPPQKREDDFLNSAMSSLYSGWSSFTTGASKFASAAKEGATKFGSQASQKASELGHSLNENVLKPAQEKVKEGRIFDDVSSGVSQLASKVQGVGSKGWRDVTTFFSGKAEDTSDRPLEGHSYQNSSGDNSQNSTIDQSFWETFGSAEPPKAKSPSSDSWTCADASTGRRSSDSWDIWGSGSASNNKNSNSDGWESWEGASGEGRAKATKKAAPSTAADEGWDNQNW
For “Leucine-rich repeat serine/threonine-protein kinase 2 (Homo sapiens), Q5S007 R1441C”, the “effect of a mutation on the interaction” value was “increasing interaction”. For “Leucine-rich repeat serine/threonine-protein kinase 2 (Homo sapiens), Q5S007 G2019S”, the “effect of a mutation on the interaction” value was “increasing interaction”. For “Leucine-rich repeat serine/threonine-protein kinase 2 (Homo sapiens), Q5S007 Y1699C”, the “effect of a mutation on the interaction” value was “increasing interaction”. With “Leucine-rich repeat serine/threonine-protein kinase 2 (Homo sapiens), Q5S007 R1398L” the “effect of a mutation on the interaction” value was “decreasing interaction”. With “Leucine-rich repeat serine/threonine-protein kinase 2 (Homo sapiens), Q5S007 T1348N” the “effect of a mutation on the interaction” value was “decreasing interaction”.
